Assay results from IntAct's records for PubMed 31515488.

B1: ATP synthase mitochondrial F1 complex assembly factor 2 (Homo sapiens), Q8N5M1 (parent)
chain: MWRSCLRLRDGGRRLLNRPAGGPSASMSPGPTIPSPARAYAPPTERKRFYQNVSITQGEGGFEINLDHRKLKTPQAKLFTVPSEALAIAVATEWDSQQDTIKYYTMHLTTLCNTSLDNPTQRNKDQLIRAAVKFLDTDTICYRVEEPETLVELQRNEWDPIIEWAEKRYGVEISSSTSIMGPSIPAKTREVLVSHLASYNTWALQGIEFVAAQLKSMVLTLGLIDLRLTVEQAVLLSRLEEEYQIQKWGNIEWAHDYELQELRARTAAGTLFIHLCSESTTVKHKLLKE
B2: Protein SSX5 (Homo sapiens), O60225 (parent)
chain: MNGDDAFVRRPRVGSQIPEKMQKAFDDIAKYFSEKEWEKMKASEKIIYVYMKRKYEAMTKLGFKATLPPFMRNKRVADFQGNDFDNDPNRGNQVEHPQMTFGRLQGIFPKITPEKPAEEGNDSKGVPEASGPQNNGKQLRPSGKLNTSEKVNKTSGPKRGKHAWTHRVRERKQLVIYEEISDPQEDDE
B3: Synaptotagmin-like protein 5 (Homo sapiens), Q8TDW5 (parent)
chain: MSKNSEFINLSFLLDHEKEMILGVLKRDEYLKKVEDKRIRKLKNELLEAKRRSGKTQQEASRVCVHCHRNLGLIFDRGDPCQACSLRVCRECRVAGPNGSWKCTVCDKIAQLRIITGEWFFEEKAKRFKQVNVLGTDVVRQSILRRSPGAEEVQSQEQTRQDAEKSDTSPVAGKKASHDGPKRKGFLLSKFRSATRGEIITPKTDTGRSYSLDLDGQHFRSLKSPPGSDRGSTGSSDLNDQEPGPRTPKSSRSNGVTPGTQSSPAPSTRTVTSVISREYGFENSMDLAAIEGTSQELTKSHRRNTSGTPSIAVSGTSLSSDQSRSELDLSESFTEDSEDTVSIRSKSVPGALDKDSLEETEESIDALVSSQLSTNTHRLASGLSTTSLNSMMSVYSETGDYGNVKVSGEILLHISYCYKTGGLYIFVKNCRNLAIGDEKKQRTDAYVKSYLLPDKSRNNKRKTKIRTGTNPEFNETLKYTISHTQLETRTLQLSVWHYDRFGRNSFLGEVEIPFDSWNFENPTDEWFVLQPKVEFAPDIGLQYKGELTVVLRYIPPEENLMLPPEQLQGNKTFKKGKKKESPVISGGILEVFIKEAKNLTAVKSGGTSDSFVKGYLLPDDSKATKHKTLVIKKSVNPQWNHTFMFSGIHPQDIKNVCLELTIWDKEAFSSNIFLGGVRLNSGSGVSHGKNVDWMDSQGEEQRLWQKMANNPGTPFEGVLMLRSSMGKCRL
partner: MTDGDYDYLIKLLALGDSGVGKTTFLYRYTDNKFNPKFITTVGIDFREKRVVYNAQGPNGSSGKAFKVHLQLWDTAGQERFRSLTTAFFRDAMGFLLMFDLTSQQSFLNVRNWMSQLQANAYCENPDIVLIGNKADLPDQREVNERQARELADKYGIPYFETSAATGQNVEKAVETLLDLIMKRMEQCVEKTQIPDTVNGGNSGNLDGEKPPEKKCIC
B4: Tuftelin-interacting protein 11 (Homo sapiens), Q9UBB9 (parent)
chain: MSLSHLYRDGEGRIDDDDDERENFEITDWDLQNEFNPNRQRHWQTKEEATYGVWAERDSDDERPSFGGKRARDYSAPVNFISAGLKKGAAEEAELEDSDDEEKPVKQDDFPKDFGPRKLKTGGNFKPSQKGFAGGTKSFMDFGSWERHTKGIGQKLLQKMGYVPGRGLGKNAQGIINPIEAKQRKGKGAVGAYGSERTTQSMQDFPVVDSEEEAEEEFQKELSQWRKDPSGSKKKPKYSYKTVEELKAKGRISKKLTAPQKELSQVKVIDMTGREQKVYYSYSQISHKHNVPDDGLPLQSQQLPQSGKEAKAPGFALPELEHNLQLLIDLTEQEIIQNDRQLQYERDMVVNLFHELEKMTEVLDHEERVISNLSKVLEMVEECERRMQPDCSNPLTLDECARIFETLQDKYYEEYRMSDRVDLAVAIVYPLMKEYFKEWDPLKDCTYGTEIISKWKSLLENDQLLSHGGQDLSADAFHRLIWEVWMPFVRNIVTQWQPRNCDPMVDFLDSWVHIIPVWILDNILDQLIFPKLQKEVENWNPLTDTVPIHSWIHPWLPLMQARLEPLYSPIRSKLSSALQKWHPSDSSAKLILQPWKDVFTPGSWEAFMVKNIVPKLGMCLGELVINPHQQHMDAFYWVIDWEGMISVSSLVGLLEKHFFPKWLQVLCSWLSNSPNYEEITKWYLGWKSMFSDQVLAHPSVKDKFNEALDIMNRAVSSNVGAYMQPGARENIAYLTHTERRKDFQYEAMQERREAENMAQRGIGVAASSVPMNFKDLIETKAEEHNIVFMPVIGKRHEGKQLYTFGRIVIYIDRGVVFVQGEKTWVPTSLQSLIDMAK
partner: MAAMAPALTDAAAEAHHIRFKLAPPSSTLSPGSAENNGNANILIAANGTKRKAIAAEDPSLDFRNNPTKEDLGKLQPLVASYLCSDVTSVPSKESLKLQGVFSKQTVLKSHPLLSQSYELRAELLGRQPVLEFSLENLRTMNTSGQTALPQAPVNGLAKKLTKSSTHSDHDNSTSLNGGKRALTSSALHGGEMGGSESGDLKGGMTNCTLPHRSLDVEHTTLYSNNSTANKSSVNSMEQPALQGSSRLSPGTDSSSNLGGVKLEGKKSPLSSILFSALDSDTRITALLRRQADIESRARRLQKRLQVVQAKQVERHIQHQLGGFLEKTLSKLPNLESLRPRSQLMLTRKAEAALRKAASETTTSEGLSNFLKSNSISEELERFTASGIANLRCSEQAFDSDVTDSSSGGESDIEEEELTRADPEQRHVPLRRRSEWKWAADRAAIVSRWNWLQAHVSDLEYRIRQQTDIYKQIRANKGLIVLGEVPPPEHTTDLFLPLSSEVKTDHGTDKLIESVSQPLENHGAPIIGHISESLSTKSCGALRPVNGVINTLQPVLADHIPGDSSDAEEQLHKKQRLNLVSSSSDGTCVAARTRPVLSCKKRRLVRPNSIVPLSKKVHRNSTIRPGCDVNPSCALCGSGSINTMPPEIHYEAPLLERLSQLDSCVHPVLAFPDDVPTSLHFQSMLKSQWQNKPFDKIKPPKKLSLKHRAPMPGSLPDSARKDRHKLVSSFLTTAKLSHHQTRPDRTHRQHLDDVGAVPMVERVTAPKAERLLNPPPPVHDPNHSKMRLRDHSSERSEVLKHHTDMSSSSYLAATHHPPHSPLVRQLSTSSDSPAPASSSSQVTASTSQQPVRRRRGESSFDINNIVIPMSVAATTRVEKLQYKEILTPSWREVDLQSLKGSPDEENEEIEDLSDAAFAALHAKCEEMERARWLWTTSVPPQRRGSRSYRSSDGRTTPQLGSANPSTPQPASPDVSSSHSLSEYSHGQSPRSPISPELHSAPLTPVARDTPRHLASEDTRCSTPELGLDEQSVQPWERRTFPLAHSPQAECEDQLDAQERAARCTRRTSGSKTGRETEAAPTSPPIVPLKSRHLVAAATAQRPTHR

Variants of: B1
Details: with tri23_human TRIM23, P36406
Chain of tri23_human TRIM23, P36406 (P36406 whole entry): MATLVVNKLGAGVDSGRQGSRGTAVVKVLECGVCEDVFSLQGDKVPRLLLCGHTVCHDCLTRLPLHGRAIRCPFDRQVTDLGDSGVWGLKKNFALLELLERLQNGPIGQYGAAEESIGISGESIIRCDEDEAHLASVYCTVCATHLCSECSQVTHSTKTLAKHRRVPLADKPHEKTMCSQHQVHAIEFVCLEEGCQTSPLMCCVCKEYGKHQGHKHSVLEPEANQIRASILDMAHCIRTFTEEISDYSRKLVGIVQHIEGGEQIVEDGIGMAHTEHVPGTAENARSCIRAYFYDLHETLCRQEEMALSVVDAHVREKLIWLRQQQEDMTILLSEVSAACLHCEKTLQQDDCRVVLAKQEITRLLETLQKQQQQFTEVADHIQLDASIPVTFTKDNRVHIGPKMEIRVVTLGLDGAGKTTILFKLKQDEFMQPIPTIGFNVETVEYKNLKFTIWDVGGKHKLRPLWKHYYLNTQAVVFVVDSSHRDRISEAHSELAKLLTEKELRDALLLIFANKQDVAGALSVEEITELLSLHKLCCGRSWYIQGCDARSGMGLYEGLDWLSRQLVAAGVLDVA

Row | effect of a mutation on the interaction | Variant
1 | with no effect | E241G

Variants of: B1
Details: with ews_human EWSR1, Q01844
Chain of ews_human EWSR1, Q01844 (Q01844 whole entry): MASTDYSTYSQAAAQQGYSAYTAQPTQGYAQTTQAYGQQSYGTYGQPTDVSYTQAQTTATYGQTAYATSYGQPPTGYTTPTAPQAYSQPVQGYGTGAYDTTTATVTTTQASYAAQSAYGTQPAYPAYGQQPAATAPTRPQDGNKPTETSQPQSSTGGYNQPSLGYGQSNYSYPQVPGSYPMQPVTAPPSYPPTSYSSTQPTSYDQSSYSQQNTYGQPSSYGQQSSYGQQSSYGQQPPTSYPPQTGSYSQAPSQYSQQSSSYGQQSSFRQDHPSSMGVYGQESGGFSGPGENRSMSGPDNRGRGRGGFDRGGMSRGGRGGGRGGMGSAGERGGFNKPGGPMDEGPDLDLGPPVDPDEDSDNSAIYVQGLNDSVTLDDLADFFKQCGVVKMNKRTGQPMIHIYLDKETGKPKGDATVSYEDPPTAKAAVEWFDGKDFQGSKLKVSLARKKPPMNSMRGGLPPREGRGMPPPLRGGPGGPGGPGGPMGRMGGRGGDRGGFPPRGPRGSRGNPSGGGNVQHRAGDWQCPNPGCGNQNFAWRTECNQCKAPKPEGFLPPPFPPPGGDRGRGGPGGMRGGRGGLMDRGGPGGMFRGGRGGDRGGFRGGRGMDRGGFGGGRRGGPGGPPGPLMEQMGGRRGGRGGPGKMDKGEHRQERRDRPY

Row | effect of a mutation on the interaction | Variant
2 | with no effect | E241G

Variants of: B2
Details: with atrap_human AGTRAP

Row | effect of a mutation on the interaction | Variant
3 | with no effect | K20N

Variants of: B3
Details: with rb27b_human RAB27B

Row | effect of a mutation on the interaction | Variant
4 | with no effect | R160H

Variants of: B4
Details: with kanl1_human KANSL1, Q7Z3B3

Row | effect of a mutation on the interaction | Variant
5 | with no effect | S688L
